From PMC3254608, “Inscuteable Regulates the Pins-Mud Spindle Orientation Pathway” (PLoS ONE, 2012)

B1: MBP-fusion of the central Ankyrin-repeat containing domain of Inscuteable (residues 252-600) (domain or fragment, Drosophila, UniProt Q24367 252-600, looked up)
chain: APPPYNNETVTFGATEQDESLQQQPSPLRVRSLRFTASTSTPKSGSKIAKRGKKHPEPVASWMSEQRWAGEPEVMCTLQHKSIAQEAYKNYTITTSAVCKLVRQLQQQALSLQVHFERSERVLSGLQASSLPEALAGATQLLSHLDDFTATLERRGVFFNDAKIERRRYEQHLEQIRTVSKDTRYSLERQHYINLESLLDDVQLLKRHTLITLRLIFERLVRVLVISIEQSQCDLLLRANINMVATLMNIDYDGFRSLSDAFVQNEAVRTLLVVVLDHKQSSVRALALRALATLCCAPQAINQLGSCGGIEIVRDILQVESAGERGAIERREAVSLLAQITAAWHGSEH
notes: Inscuteable (Insc), Drosophila, residues 252-600, including the central Ankyrin-repeat containing region; pMAL-c2 based vector; also called MBP-Insc; source: E. coli BL21(DE3), purified (amylose resin)
B2: Pins TPR (residues 42-398), soluble (domain or fragment)
chain: MCLELALEGERLCKAGDCRAGVAFFQAAIQAGTEDLRTLSAIYSQLGNAYFYLGDYNKAMQYHKHDLTLAKSMNDRLGEAKSSGNLGNTLKVMGRFDEAAICCERHLTLARQLGDRLSEGRALYNLGNVYHAKGKHLGQRNPGKFGDDVKEALTRAVEFYQENLKLMRDLGDRGAQGRACGNLGNTYYLLGDFQAAIEHHQERLRIAREFGDRAAERRANSNLGNSHIFLGQFEDAAEHYKRTLALAVELGEREVEAQSCYSLGNTYTLLHEFNTAIEYHNRHLAIAQELGDRIGEARACWSLGNAHSAIGGHERALKYAEQHLQLAKELHDPVGESTARVNISDLRKLLGMPDSEP

Columns and labels:
[1] = target: T1, Pins TPR (residues 42-398), soluble (Drosophila, UniProt Q9VB22 42-398); experiment: fluorescence polarisation; fluorescence anisotropy, competition: Inscuteable added to a pre-formed complex of 100 nM TMR-Mud and 1 uM Pins, binding buffer, 20°C; conditions: both partners purified
T1 construct: Partner of Inscuteable (Pins), Drosophila, residues 42-398, the TPR domain; it may be a hexahistidine fusion (pBH vector); also called Pins TPRs; source: E. coli BL21(DE3), purified
T1 sequence (looked up): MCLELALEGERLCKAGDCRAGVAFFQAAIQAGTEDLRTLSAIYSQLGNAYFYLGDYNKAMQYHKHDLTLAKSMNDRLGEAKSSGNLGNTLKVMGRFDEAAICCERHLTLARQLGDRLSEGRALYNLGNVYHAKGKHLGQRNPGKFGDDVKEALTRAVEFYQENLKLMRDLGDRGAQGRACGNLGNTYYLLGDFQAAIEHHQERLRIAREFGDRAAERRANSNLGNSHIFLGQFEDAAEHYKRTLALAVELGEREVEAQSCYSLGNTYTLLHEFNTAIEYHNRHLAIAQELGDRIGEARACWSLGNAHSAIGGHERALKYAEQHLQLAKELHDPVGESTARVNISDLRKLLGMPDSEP

[2] = target: TMR-Mud peptide (Mud residues 1955-1970 with an NH2-terminal cysteine, labelled with tetramethylrhodamine) (Drosophila); experiment: fluorescence polarisation; fluorescence anisotropy, direct titration: constant 100 nM TMR-Mud, increasing ligand, binding buffer, 20°C, fit to 1:1 binding

| Binder | Kd [1] [µM] | Kd [2] [µM] |
| --- | --- | --- |
| B1 | 5 |  |
| B2 |  | 1.1 |
